From patent publication US10688197B2, “Non-alcoholic fatty liver regulator 14-3-3 protein” (Korea University Research and Business Foundation, priority 2015, dated 2020) come the findings set out here.

Assay [1] deals with T1, binding between PPARγ2 and 14-3-3β (Homo sapiens, UniProt P37231).
T1 construct: expressed in transfected cells; host or cells: HEK-293T
T1 sequence (P37231 1-505): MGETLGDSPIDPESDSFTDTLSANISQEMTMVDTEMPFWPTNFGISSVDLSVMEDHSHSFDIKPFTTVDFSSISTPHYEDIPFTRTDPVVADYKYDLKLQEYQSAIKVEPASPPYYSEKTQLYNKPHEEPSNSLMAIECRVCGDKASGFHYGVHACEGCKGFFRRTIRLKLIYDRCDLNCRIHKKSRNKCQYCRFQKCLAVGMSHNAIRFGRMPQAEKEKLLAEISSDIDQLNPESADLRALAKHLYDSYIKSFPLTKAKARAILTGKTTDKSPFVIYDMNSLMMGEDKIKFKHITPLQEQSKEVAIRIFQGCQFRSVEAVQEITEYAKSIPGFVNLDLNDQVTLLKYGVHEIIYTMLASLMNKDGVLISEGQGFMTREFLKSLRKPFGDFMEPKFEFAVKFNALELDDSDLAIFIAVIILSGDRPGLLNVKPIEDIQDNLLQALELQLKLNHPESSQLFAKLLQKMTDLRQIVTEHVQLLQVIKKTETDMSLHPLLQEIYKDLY
T1 sequence (P31946 1-246 partner): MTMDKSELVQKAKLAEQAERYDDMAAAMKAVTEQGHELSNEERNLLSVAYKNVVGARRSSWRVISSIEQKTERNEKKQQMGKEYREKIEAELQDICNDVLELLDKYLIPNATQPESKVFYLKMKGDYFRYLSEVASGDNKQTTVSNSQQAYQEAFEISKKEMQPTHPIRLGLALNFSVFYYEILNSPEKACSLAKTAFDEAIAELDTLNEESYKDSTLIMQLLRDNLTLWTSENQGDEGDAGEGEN
The assay is described as follows: GST-pull down assay, binding between PPARγ2 and 14-3-3β (HEK-293T). Here is the method:
After transfection, […], washed with ice-cold PBS, and lysed using 500 μl/well of a lysis buffer (150 mM NaCl, 1 mM EDTA, 1% Nonidet P-40, 5% glycerol, 25 mM tris-HCl, pH 7.5, protease inhibitor added), and the lysed cells were centrifuged at 10,000×g and 4° C. for 10 minutes to extract proteins. Thereafter, 1,000 μg of the proteins was reacted with 20 μl of glutathione Sepharose 4B beads (GE Healthcare, Buckinghamshire, UK) for 6 hours, and then washing of the beads with 1 ml of ice-cold PBS was repeated 5 times, and the beads were boiled at 100° C. for 10 minutes, followed by 10% SDS-PAGE gel separation and western blotting. A ratio of GST antibodies (Santa Cruz) to Myc antibodies (self-production) was 1:3000. The detection of each protein was performed using West Pico ECL (Thermo scientific, Rockford, Ill.) and identified in a darkroom.
After transfection, […], washed with ice-cold PBS, and lysed using 500 μl/well of a lysis buffer (150 mM NaCl, 1 mM EDTA, 1% Nonidet P-40, 5% glycerol, 25 mM tris-HCl, pH 7.5, protease inhibitor added), and the lysed cells were centrifuged at 10,000×g and 4° C. for 10 minutes to extract proteins. […]

Assay [2] deals with T2, PPAR-RXR complex (Homo sapiens, UniProt P37231).
T2 sequence (P37231 1-505): T1 sequence (P37231 1-505)
T2 sequence (P19793 1-462 partner): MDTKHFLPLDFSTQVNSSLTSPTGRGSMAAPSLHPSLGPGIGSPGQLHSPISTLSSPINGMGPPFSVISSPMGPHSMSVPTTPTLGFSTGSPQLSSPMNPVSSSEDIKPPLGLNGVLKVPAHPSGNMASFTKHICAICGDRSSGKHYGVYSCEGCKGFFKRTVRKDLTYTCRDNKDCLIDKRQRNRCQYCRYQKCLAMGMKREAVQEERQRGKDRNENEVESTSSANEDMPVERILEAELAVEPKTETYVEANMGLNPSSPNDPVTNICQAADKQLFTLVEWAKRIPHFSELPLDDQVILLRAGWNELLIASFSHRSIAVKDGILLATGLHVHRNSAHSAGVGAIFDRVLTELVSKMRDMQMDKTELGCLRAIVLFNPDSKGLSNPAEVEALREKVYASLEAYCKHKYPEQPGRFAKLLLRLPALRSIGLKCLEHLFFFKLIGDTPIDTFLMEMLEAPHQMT
The assay is described as follows: Formation of the PPAR-RXR complex. The assay is classed as cell-based. The conditions noted are these: overexpression, FIG. 8C.

Regarding “14-3-3γ: 14-3-3 isoform protein overexpressed by DNA transfection; decreases the transcriptional activity of PPARγ2; proposed active ingredient”, the “binding between 14-3-3β and PPARγ2” value in assay [1] (expression amount of 14-3-3γ increased (HA-14-3-3γ DNA 2 and 4 μg), FIG. 5A) was “reduced”. In assay [2], the “formation of the PPAR-RXR complex” value was “did not affect”.

`CCCCCCCC/C=C\CCCCCCCC(=O)O` [oleic acid]: the “binding between PPARγ2 and 14-3-3β” value in assay [1] (200 μM oleic acid 72 hours, FIG. 8A) is given as “increased”. With “14-3-3β: 14-3-3 isoform protein overexpressed by DNA transfection; increases the transcriptional activity of PPARγ2 by binding to PPARγ2”, the “formation of the PPAR-RXR complex” value in assay [2] is listed as “did not affect”.
